Test results published in PMC8602850, “SARS-CoV-2 Exacerbates COVID-19 Pathology Through Activation of the Complement and Kinin Systems” (Frontiers in Immunology, 2021).

B1: synthetic peptide corresponding to the gC1qR-binding region from HK (peptide)
chain: HKHGHGHGKHKNKGKKNGKH
B2: gC1qR, wild type, mature recombinant (receptor for the globular heads of C1q) (receptor, UniProt Q07021 74-282, looked up)
chain: LHTDGDKAFVDFLSDEIKEERKIQKHKTLPKMSGGWELELNGTEAKLVRKVAGEKITVTFNINNSIPPTFDGEEEPSQGQKVEEQEPELTSTPNFVVEVIKNDDGKKALVLDCHYPEDEVGQEDEAESDIFSIREVSFQSTGESEWKDTNYTLNTDSLDWALYDHLMDFLADRGVDNTFADELVELSTALEHQEYITFLEDLKSFVKSQ
modifications: biotin (biotinylated gC1qR in the ELISA; not said for the SPR surface)
notes: also called gC1qR-WT; biotinylated gC1qR

What was measured:
[1] = target: B2; test: SPR; gC1qR-WT or gC1qR-ΔΔ immobilised; two-fold dilution series of analyte injected; reference-corrected sensorgrams fit to kinetic models; apparent KD; details: both partners purified
[2] = target: T1, SARS-CoV-2 nucleocapsid (N) protein, recombinant (SARS-CoV-2, UniProt P0DTC9 1-419); test: as above; details: both partners purified
T1 construct: also called Nucleocapsid protein

Binder | Kd [1] | Kd [2]
B1 | 2 mM | –
B2 | – | 0.006 mM
